Results: patent EP4703388A1

Experiments:
[1] = target: HuRatTF, human-rat hybrid TF antigen (human-rat hybrid); assay: ELISA, HuRatTF coated, antibody titrated
[2] = target: human tissue factor (TF) on MDA-MB-231, NCI-H358 and HCT116 cells (human) (UniProt P13726); assay: cell-based or functional assay
Sequence of human tissue factor (TF) on MDA-MB-231, NCI-H358 and HCT116 cells (human) (P13726 33-295): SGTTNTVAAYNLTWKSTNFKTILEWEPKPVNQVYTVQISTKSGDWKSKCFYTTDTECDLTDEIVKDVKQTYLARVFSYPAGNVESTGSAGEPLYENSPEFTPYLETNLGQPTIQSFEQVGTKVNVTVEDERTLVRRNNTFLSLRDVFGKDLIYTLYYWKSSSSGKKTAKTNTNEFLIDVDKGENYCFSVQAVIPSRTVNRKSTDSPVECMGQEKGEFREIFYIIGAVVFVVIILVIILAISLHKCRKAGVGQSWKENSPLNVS

Sequence of HuRatTF, human-rat hybrid TF antigen (human-rat hybrid) (chain, as listed by the source limits assumed): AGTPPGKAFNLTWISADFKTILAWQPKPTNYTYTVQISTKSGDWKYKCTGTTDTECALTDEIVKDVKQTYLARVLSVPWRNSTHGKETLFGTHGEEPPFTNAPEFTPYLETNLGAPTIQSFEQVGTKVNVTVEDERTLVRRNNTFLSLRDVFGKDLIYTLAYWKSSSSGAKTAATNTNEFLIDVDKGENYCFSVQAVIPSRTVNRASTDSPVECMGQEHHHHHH

Maximum (OD450 nm) [1]: 0.0585 OD450 nm
Inhibition rate (%), Factor-VII-Human Chromogenic-Activity blood coagulation pathway assay (FVIIa, MDA-MB-231 cells, FX; antibody 20 µg/mL) [2]: 92.8%
Substance: TF011 (monoclonal antibody sequence of tisotumab vedotin)
